Laboratory results published in IntAct's records for PubMed 29426014.

B1: Ubiquitin-protein ligase (Homo sapiens), Q05086-1 (parent)
chain: MEKLHQCYWKSGEPQSDDIEASRMKRAAAKHLIERYYHQLTEGCGNEACTNEFCASCPTFLRMDNNAAAIKALELYKINAKLCDPHPSKKGASSAYLENSKGAPNNSCSEIKMNKKGARIDFKDVTYLTEEKVYEILELCREREDYSPLIRVIGRVFSSAEALVQSFRKVKQHTKEELKSLQAKDEDKDEDEKEKAACSAAAMEEDSEASSSRIGDSSQGDNNLQKLGPDDVSVDIDAIRRVYTRLLSNEKIETAFLNALVYLSPNVECDLTYHNVYSRDPNYLNLFIIVMENRNLHSPEYLEMALPLFCKAMSKLPLAAQGKLIRLWSKYNADQIRRMMETFQQLITYKVISNEFNSRNLVNDDDAIVAASKCLKMVYYANVVGGEVDTNHNEEDDEEPIPESSELTLQELLGEERRNKKGPRVDPLETELGVKTLDCRKPLIPFEEFINEPLNEVLEMDKDYTFFKVETENKFSFMTCPFILNAVTKNLGLYYDNRIRMYSERRITVLYSLVQGQQLNPYLRLKVRRDHIIDDALVRLEMIAMENPADLKKQLYVEFEGEQGVDEGGVSKEFFQLVVEEIFNPDIGMFTYDESTKLFWFNPSSFETEGQFTLIGIVLGLAIYNNCILDVHFPMVVYRKLMGKKGTFRDLGDSHPVLYQSLKDLLEYEGNVEDDMMITFQISQTDLFGNPMMYDLKENGDKIPITNENRKEFVNLYSDYILNKSVEKQFKAFRRGFHMVTNESPLKYLFRPEEIELLICGSRNLDFQALEETTEYDGGYTRDSVLIREFWEIVHSFTDEQKRLFLQFTTGTDRAPVGGLGKLKMIIAKNGPDTERLPTSHTCFNVLLLPEYSSKEKLKERLLKAITYAKGFGML
partner: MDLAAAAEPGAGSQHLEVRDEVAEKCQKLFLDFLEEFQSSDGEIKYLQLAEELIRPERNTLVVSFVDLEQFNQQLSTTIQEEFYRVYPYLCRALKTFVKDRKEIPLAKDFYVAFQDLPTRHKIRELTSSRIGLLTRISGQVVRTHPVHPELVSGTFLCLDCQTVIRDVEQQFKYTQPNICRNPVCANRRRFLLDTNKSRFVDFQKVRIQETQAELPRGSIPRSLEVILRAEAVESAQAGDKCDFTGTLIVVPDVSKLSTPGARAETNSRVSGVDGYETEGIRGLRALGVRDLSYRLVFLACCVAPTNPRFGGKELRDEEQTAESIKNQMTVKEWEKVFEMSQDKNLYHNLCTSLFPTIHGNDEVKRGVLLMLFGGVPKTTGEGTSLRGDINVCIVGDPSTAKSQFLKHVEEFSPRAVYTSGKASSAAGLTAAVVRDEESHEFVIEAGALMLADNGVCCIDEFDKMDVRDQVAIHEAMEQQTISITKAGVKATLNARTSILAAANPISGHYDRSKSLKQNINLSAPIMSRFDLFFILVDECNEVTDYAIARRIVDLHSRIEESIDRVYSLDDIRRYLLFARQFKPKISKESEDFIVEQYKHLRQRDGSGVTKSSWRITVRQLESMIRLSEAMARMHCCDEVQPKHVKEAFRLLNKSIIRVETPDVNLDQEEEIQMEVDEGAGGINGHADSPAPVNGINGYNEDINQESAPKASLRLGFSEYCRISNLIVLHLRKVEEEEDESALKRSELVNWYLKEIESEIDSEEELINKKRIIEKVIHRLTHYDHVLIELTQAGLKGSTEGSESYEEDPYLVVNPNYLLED
B2: Ubiquitin-protein ligase (Homo sapiens), Q05086-1 (parent)
chain: B1 chain
partner: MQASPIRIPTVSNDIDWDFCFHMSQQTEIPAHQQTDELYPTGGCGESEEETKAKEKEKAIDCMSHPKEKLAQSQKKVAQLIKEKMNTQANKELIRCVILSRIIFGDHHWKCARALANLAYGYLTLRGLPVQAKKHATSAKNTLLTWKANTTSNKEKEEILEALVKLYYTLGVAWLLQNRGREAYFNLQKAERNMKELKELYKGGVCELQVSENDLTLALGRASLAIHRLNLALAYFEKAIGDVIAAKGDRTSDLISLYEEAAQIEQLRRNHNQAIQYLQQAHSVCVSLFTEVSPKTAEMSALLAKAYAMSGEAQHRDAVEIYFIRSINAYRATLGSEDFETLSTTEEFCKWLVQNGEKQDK
B3: Ubiquitin-protein ligase (Homo sapiens), Q05086-3 (parent)
chain: MATACKRSGEPQSDDIEASRMKRAAAKHLIERYYHQLTEGCGNEACTNEFCASCPTFLRMDNNAAAIKALELYKINAKLCDPHPSKKGASSAYLENSKGAPNNSCSEIKMNKKGARIDFKDVTYLTEEKVYEILELCREREDYSPLIRVIGRVFSSAEALVQSFRKVKQHTKEELKSLQAKDEDKDEDEKEKAACSAAAMEEDSEASSSRIGDSSQGDNNLQKLGPDDVSVDIDAIRRVYTRLLSNEKIETAFLNALVYLSPNVECDLTYHNVYSRDPNYLNLFIIVMENRNLHSPEYLEMALPLFCKAMSKLPLAAQGKLIRLWSKYNADQIRRMMETFQQLITYKVISNEFNSRNLVNDDDAIVAASKCLKMVYYANVVGGEVDTNHNEEDDEEPIPESSELTLQELLGEERRNKKGPRVDPLETELGVKTLDCRKPLIPFEEFINEPLNEVLEMDKDYTFFKVETENKFSFMTCPFILNAVTKNLGLYYDNRIRMYSERRITVLYSLVQGQQLNPYLRLKVRRDHIIDDALVRLEMIAMENPADLKKQLYVEFEGEQGVDEGGVSKEFFQLVVEEIFNPDIGMFTYDESTKLFWFNPSSFETEGQFTLIGIVLGLAIYNNCILDVHFPMVVYRKLMGKKGTFRDLGDSHPVLYQSLKDLLEYEGNVEDDMMITFQISQTDLFGNPMMYDLKENGDKIPITNENRKEFVNLYSDYILNKSVEKQFKAFRRGFHMVTNESPLKYLFRPEEIELLICGSRNLDFQALEETTEYDGGYTRDSVLIREFWEIVHSFTDEQKRLFLQFTTGTDRAPVGGLGKLKMIIAKNGPDTERLPTSHTCFNVLLLPEYSSKEKLKERLLKAITYAKGFGML
B4: Ubiquitin-protein ligase (Homo sapiens), Q05086-2 (parent)
chain: MKRAAAKHLIERYYHQLTEGCGNEACTNEFCASCPTFLRMDNNAAAIKALELYKINAKLCDPHPSKKGASSAYLENSKGAPNNSCSEIKMNKKGARIDFKDVTYLTEEKVYEILELCREREDYSPLIRVIGRVFSSAEALVQSFRKVKQHTKEELKSLQAKDEDKDEDEKEKAACSAAAMEEDSEASSSRIGDSSQGDNNLQKLGPDDVSVDIDAIRRVYTRLLSNEKIETAFLNALVYLSPNVECDLTYHNVYSRDPNYLNLFIIVMENRNLHSPEYLEMALPLFCKAMSKLPLAAQGKLIRLWSKYNADQIRRMMETFQQLITYKVISNEFNSRNLVNDDDAIVAASKCLKMVYYANVVGGEVDTNHNEEDDEEPIPESSELTLQELLGEERRNKKGPRVDPLETELGVKTLDCRKPLIPFEEFINEPLNEVLEMDKDYTFFKVETENKFSFMTCPFILNAVTKNLGLYYDNRIRMYSERRITVLYSLVQGQQLNPYLRLKVRRDHIIDDALVRLEMIAMENPADLKKQLYVEFEGEQGVDEGGVSKEFFQLVVEEIFNPDIGMFTYDESTKLFWFNPSSFETEGQFTLIGIVLGLAIYNNCILDVHFPMVVYRKLMGKKGTFRDLGDSHPVLYQSLKDLLEYEGNVEDDMMITFQISQTDLFGNPMMYDLKENGDKIPITNENRKEFVNLYSDYILNKSVEKQFKAFRRGFHMVTNESPLKYLFRPEEIELLICGSRNLDFQALEETTEYDGGYTRDSVLIREFWEIVHSFTDEQKRLFLQFTTGTDRAPVGGLGKLKMIIAKNGPDTERLPTSHTCFNVLLLPEYSSKEKLKERLLKAITYAKGFGML
partner: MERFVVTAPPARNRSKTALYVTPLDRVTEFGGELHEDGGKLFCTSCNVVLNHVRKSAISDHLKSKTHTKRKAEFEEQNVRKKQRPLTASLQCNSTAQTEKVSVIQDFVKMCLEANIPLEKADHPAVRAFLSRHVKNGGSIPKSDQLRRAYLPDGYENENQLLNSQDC
B5: Ubiquitin-protein ligase (Homo sapiens), Q05086-3 (parent)
chain: B3 chain
partner: B4 partner
B6: Ubiquitin-protein ligase (Homo sapiens), Q05086-3 (parent)
chain: B3 chain
partner: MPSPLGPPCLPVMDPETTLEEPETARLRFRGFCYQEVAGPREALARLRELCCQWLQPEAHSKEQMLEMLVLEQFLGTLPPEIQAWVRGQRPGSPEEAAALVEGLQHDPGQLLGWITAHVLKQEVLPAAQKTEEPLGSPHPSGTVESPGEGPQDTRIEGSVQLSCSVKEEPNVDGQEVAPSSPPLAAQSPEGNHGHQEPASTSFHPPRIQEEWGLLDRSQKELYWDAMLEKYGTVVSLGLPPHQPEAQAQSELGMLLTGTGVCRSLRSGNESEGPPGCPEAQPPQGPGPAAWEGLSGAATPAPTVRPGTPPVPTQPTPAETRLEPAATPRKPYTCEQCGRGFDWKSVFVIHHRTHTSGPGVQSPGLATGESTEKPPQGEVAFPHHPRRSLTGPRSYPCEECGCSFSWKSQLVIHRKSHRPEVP
B7: Ubiquitin-protein ligase (Homo sapiens), Q05086-3 (parent)
chain: B3 chain
partner: B2 partner
B8: Ubiquitin-protein ligase (Homo sapiens), Q05086-3 (parent)
chain: B3 chain
partner: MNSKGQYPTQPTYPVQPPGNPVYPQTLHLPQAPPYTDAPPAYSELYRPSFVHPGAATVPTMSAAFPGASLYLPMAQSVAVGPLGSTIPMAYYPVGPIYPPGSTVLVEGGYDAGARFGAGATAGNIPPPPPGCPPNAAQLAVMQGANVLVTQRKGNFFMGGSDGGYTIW
B9: Ubiquitin-protein ligase (Homo sapiens), Q05086-2 (parent)
chain: B4 chain
partner: B6 partner

Variants of: B1
Settings: with mcm6_human MCM6, Q14566

Row | Variant | effect of a mutation on the interaction
1 | C843A | with no effect

Variants of: B2
Settings: with TTC23L

Row | Variant | effect of a mutation on the interaction
2 | C843A | causing an interaction

Variants of: B3
Settings: with ZNF250, P15622-3
Chain of ZNF250, P15622-3 (P15622 other isoform, or with tags, fused parts or gaps): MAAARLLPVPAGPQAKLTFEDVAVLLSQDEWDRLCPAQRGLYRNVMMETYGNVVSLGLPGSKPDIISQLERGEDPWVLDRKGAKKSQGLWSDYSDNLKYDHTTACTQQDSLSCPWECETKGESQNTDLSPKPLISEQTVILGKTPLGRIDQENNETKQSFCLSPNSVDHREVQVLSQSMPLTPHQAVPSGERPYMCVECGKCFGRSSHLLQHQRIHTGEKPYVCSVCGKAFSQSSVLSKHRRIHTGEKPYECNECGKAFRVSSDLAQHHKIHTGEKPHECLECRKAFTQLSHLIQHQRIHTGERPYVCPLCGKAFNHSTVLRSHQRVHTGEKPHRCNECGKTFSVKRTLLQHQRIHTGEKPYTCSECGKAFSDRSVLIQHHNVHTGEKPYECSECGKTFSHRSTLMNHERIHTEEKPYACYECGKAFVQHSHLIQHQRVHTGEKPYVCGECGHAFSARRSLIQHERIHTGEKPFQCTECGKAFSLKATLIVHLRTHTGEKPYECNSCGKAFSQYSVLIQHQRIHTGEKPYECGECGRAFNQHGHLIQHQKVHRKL

Row | Variant | effect of a mutation on the interaction
3 | C840A | causing an interaction

Variants of: B3
Settings: with PAX6, P26367-1
Chain of PAX6, P26367-1 (P26367 whole entry): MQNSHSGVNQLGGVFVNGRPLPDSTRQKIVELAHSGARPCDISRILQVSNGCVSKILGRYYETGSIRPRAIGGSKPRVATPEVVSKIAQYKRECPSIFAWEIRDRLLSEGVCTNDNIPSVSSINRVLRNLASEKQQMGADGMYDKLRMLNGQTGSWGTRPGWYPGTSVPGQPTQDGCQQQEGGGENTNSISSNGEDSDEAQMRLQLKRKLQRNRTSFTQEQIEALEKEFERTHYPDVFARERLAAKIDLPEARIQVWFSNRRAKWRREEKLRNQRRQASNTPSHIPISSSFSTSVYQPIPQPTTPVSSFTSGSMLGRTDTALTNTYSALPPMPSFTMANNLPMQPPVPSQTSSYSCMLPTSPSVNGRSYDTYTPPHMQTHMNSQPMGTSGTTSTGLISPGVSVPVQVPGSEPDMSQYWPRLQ

Row | Variant | effect of a mutation on the interaction
4 | C840A | causing an interaction

Variants of: B3
Settings: with magac_human MAGEA12, P43365
Chain of magac_human MAGEA12, P43365 (P43365 whole entry): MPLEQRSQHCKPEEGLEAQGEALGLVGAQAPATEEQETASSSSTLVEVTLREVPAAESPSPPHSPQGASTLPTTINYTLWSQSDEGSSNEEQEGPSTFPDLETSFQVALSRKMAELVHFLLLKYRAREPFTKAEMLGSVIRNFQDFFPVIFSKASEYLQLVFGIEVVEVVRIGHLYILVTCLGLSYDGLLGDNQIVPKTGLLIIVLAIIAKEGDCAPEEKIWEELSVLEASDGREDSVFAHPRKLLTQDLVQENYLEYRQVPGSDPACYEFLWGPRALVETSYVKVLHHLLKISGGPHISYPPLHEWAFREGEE

Row | Variant | effect of a mutation on the interaction
5 | C840A | with no effect

Variants of: B3
Settings: with PSMD4, P55036-1
Chain of PSMD4, P55036-1 (P55036 whole entry): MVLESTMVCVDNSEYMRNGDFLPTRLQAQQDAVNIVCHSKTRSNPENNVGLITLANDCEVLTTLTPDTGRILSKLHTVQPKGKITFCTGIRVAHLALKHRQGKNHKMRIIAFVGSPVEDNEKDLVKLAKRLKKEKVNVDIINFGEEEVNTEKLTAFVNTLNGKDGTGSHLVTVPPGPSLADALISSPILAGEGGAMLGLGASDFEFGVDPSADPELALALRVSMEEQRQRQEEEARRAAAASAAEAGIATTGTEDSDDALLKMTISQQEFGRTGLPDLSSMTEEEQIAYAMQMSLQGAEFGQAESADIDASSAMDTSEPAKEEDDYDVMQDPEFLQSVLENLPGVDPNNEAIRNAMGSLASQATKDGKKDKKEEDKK

Row | Variant | effect of a mutation on the interaction
6 | C840A | with no effect

Variants of: B3
Settings: with PAX5, Q02548-1
Chain of PAX5, Q02548-1 (Q02548 whole entry): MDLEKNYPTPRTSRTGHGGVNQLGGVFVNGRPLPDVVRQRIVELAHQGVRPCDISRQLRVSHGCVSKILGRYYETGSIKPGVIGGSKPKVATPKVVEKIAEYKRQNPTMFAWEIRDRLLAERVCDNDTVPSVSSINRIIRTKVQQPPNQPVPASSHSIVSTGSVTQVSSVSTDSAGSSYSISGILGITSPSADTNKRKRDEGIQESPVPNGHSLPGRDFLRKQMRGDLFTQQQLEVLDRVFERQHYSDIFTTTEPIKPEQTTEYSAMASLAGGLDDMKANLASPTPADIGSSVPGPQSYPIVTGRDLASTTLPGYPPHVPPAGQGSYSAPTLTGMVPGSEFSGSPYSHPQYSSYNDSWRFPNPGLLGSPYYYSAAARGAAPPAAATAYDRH

Row | Variant | effect of a mutation on the interaction
7 | C840A | causing an interaction

Variants of: B3
Settings: with PTCD3, Q96EY7-1

Row | Variant | effect of a mutation on the interaction
8 | C840A | with no effect

Variants of: B3
Settings: with ubql2_human UBQLN2, Q9UHD9
Chain of ubql2_human UBQLN2, Q9UHD9 (Q9UHD9 whole entry): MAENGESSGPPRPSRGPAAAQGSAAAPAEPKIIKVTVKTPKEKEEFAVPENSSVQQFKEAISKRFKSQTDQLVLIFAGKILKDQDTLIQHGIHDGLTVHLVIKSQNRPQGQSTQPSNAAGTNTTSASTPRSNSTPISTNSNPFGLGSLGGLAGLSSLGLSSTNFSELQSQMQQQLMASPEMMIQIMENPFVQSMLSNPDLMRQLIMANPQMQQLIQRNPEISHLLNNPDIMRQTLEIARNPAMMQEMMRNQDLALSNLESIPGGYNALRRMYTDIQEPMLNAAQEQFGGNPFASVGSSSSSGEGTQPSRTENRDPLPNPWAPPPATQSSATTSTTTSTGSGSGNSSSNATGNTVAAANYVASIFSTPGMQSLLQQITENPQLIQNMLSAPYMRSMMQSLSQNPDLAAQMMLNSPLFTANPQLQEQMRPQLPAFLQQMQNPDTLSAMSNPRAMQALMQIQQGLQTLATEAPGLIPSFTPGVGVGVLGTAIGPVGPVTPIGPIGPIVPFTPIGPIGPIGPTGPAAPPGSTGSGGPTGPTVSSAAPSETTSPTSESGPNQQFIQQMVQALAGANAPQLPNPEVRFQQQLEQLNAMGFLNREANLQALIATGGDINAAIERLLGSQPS

Row | Variant | effect of a mutation on the interaction
9 | C840A | with no effect

Variants of: B3
Settings: with UBQLN1, Q9UMX0-1
Chain of UBQLN1, Q9UMX0-1 (Q9UMX0 whole entry): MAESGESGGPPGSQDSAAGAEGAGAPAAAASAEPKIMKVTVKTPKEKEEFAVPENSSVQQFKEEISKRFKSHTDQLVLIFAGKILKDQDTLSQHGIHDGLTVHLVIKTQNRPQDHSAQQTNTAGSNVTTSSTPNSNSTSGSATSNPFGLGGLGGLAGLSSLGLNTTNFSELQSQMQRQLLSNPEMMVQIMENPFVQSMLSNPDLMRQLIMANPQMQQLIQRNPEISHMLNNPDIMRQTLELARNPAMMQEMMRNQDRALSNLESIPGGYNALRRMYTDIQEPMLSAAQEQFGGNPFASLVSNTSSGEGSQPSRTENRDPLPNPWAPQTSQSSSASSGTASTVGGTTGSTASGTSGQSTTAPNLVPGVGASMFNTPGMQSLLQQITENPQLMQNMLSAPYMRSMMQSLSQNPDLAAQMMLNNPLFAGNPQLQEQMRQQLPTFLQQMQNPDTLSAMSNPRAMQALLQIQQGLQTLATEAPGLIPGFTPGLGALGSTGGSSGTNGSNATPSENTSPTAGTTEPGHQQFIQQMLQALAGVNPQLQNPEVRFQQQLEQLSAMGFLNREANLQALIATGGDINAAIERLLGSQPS

Row | Variant | effect of a mutation on the interaction
10 | C840A | with no effect

Variants of: B4
Settings: with cgbp1_human CGGBP1, Q9UFW8

Row | Variant | effect of a mutation on the interaction
11 | C820A | causing an interaction

Variants of: B5
Settings: with cgbp1_human CGGBP1, Q9UFW8

Row | Variant | effect of a mutation on the interaction
12 | C840A | causing an interaction

Variants of: B6
Settings: with ZNF446, Q9NWS9-2

Row | Variant | effect of a mutation on the interaction
13 | C840A | causing an interaction

Variants of: B7
Settings: with TTC23L

Row | Variant | effect of a mutation on the interaction
14 | C840A | causing an interaction

Variants of: B8
Settings: with DAZAP2, Q15038-1

Row | Variant | effect of a mutation on the interaction
15 | C840A | causing an interaction

Variants of: B9
Settings: with ZNF446, Q9NWS9-2

Row | Variant | effect of a mutation on the interaction
16 | C820A | causing an interaction
